{"source": "patent US4493829A", "about": "“Bio-available succinylated protein-iron derivatives which do not cause gastric lesions, method of preparation and related pharmaceutical compounds” (Italfarmaco S.p.A., priority 1982, dated 1985)", "key": {"[1]": {"assay": "Haematic levels after oral administration: Ferrolat-ferrous sulphate comparison", "set-up": "species or system male Wistar rats", "details": "rat, in vivo, 1 mg/kg", "protocol": "Male Wistar rats, weighing approximately 200 grammes and starved for 18 hours were taken, randomized and separated into groups of 5; each group had been sacrificed at the determined hour and blood was taken from each animal by resecting the carotid; the amount of iron in the blood of each animal of the group was determined spectrophotometrically by means of bathophenanthrolinsulphonic acid (Fe-test, Wako). The administration was carried out by a probe in an acqueous solution (5 ml/kg).\nThe succinyl ferroprotein derivative which was used was prepared as in example 1 (Ferrolat). It can be seen that the quantity of iron/kg. was the same for both the derivatives (Fe: 1 mg/kg)."}, "[2]": {"details": "cited from earlier work"}, "[3]": {"details": "ferritin based treatment; cited from earlier work"}, "[4]": {"assay": "Haematic levels after oral administration: Ferrolat-ferritin comparison", "type": "in vivo, male Wistar rats", "details": "1 mg/kg Fe oral", "protocol": "Male Wistar rats, weighing approximately 200 grams and starved for 18 hours, were taken, randomized and separated into groups of 9; each group was sacrificed at the determined hour and blood was taken from each animal by resecting the carotid. The amount of iron in the blood of each animal of the group was determined spectrophotometrically by means of the Iron Colorimetric Method (Boehringer-Mannheim). The administration was carried out by a probe in an acqueous solution (5 ml/kg). Dosages and results are shown in table X. It can be seen that the quantity of iron/kg for the succinyl ferroprotein derivative indicated as Ferrolat was that of ferritin (Sigma, St. Louis, Mo.) and equal to 1 mg/kg."}, "[5]": {"assay": "Haematic levels: comparison between succinyl ferroprotein derivatives from different types of proteins", "type": "in vivo, male Wistar rats", "details": "two hours after administration, 1 mg/kg Fe oral", "protocol": "Male Wistar rats, weighing approximately 200 grams and starved for 18 hours, were taken, randomized and separated into groups of 5 (one per dose of derivative and a control group). Each group was sacrificed two hours after administration and, by resecting the carotid, blood was taken from each animal and the iron content in the blood was determined by means of bathophenanthrolinsulphonic acid Fe-test, Wako). The oral administration was carried out by a probe in an aqueous solution (5 ml/kg). The doses of individual derivatives which were used were selected so that 1 mg/kg of Fe was always administered."}}}
{"molecule": "O=S(=O)([O-])[O-].[Fe+2]", "note": "[FeSO4 7H2 O, ferrous sulphate]", "values": [{"measurement": "Serum iron", "setting": "[1]; 0.5 h", "value": 336.27, "unit": "μg %"}, {"measurement": "Serum iron", "setting": "[1]; 1 h", "value": 272.14, "unit": "μg %"}, {"measurement": "Serum iron", "setting": "[1]; 2 h", "value": 273.56, "unit": "μg %"}, {"measurement": "Serum iron", "setting": "[1]; 4 h", "value": 129.50, "unit": "μg %"}, {"measurement": "Serum iron", "setting": "[1]; 6 h", "value": 80.52, "unit": "μg %"}]}
{"molecule": "Ferritin", "values": [{"measurement": "solubility in water", "setting": "[2]", "value": "soluble in water"}, {"measurement": "gastrointestinal side effects", "setting": "[3]", "value": "does not result in the gastrointestinal side effects"}, {"measurement": "Serum iron", "setting": "[4]; 1 hour after treatment", "value": 168.79, "unit": "μg/100 ml"}, {"measurement": "Serum iron", "setting": "[4]; 2 hours after treatment", "value": 170.66, "unit": "μg/100 ml"}, {"measurement": "Serum iron", "setting": "[4]; 4 hours after treatment", "value": 148.08, "unit": "μg/100 ml"}, {"measurement": "Serum iron", "setting": "[4]; 6 hours after treatment", "value": 89.22, "unit": "μg/100 ml"}]}
{"molecule": "Succ. ovalbumin: iron derivatives from succinylated egg proteins (ovalbumin) (protein, UniProt P01012 2-386, looked up, 95% succinylated, iron derivative 3.6% Fe) Ovalbumin: GSIGAASMEFCFDVFKELKVHHANENIFYCPIAIMSALAMVYLGAKDSTRTQINKVVRFDKLPGFGDSIEAQCGTSVNVHSSLRDILNQITKPNDVYSFSLASRLYAEERYPILPEYLQCVKELYRGGLEPINFQTAADQARELINSWVESQTNGIIRNVLQPSSVDSQTAMVLVNAIVFKGLWEKAFKDEDTQAMPFRVTEQESKPVQMMYQIGLFRVASMASEKMKILELPFASGTMSMLVLLPDEVSGLEQLESIINFEKLTEWTSSNVMEERKIKVYLPRMKMEEKYNLTSVLMAMGITDVFSSSANLSGISSAESLKISQAVHAAHAEINEAGREVVGSAEAGVDAASVSEEFRADHPFLFCIKHIATNAVLFFGRCVSP", "values": [{"measurement": "serum iron average values ± SE", "setting": "[5]", "value": "235.82 ± 46.06", "unit": "μg/100 ml"}]}
